B1: CaADH (Clostridium autoethanogenum DSM 10061) (protein)
chain: KGFAMLGINKLGWIEKKNPVPGPYDAIVHPLAVSPCTSDIHTVFEGALGNRENMILGHEAVGEIAEVGSEVKDFKVGDRVIVPCTTPDWRSLEVQAGFQQHSNGMLAGWKFSNFKDGVFADYFHVNDADMNLAILPDEIPLESAVMMTDMMTTGFHGAELADIKMGSSVVVIGIGAVGLMGIAGSKLRGAGRIIGVGSRPVCVETAKFYGATDIVNYKNGDIVEQIMDLTHGKGVDRVIMAGGGAETLAQAVTMVKPGGVISNINYHGSGDTLPIPRVQWGCGMAHKTIRGGLCPGGRLRMEMLRDLVLYKRVDLSKLVTHVFDGAENIEKALLLMKNKPKDLIKSVVTF

Assays:
Assay in all cases: purified protein
Details in all cases: 0.2 mM NADPH, 50 mM Tris-HCl pH 7.5, 1 mM DTT, 25°C
[1] = tested on: CC(=O)C(C)O
[2] = substrate: CC(=O)C(C)O; remark: listed apart in the source
[3] = substrate: CC(C)=O
[4] = substrate: CCC(C)=O

Molecule | Km [1] [mM] | kcat [1] [s⁻¹] | kcat/Km [1] [M⁻¹ s⁻¹] | Km [2] [mM] | kcat [2] [s⁻¹] | kcat/Km [2] [M⁻¹ s⁻¹] | Km [3] [mM] | kcat [3] [s⁻¹] | kcat/Km [3] [M⁻¹ s⁻¹] | Km [4] [mM] | kcat [4] [s⁻¹] | kcat/Km [4] [M⁻¹ s⁻¹]
CaADH (Clostridium autoethanogenum DSM 10061; S199R) | 34 ± 5 | 95 ± 4 | 2800 | – | – | – | – | – | – | – | – | –
B1 | – | – | – | 98 ± 10 | 150 ± 8 | 1600 | 1.0 ± 0.1 | 55 | 55000 | 1.8 ± 0.2 | 37 | 21000

Reference: article PMC4498498
